The labels stand for the following.
B1: bovine ZP3 fragment Arg-32 to Glu-178, N-terminal His-tag and S-tag [modified: N-glycosylated Asn-124 and Asn-146; N-glycosylated Asn-124 and Asn-146] [bovine] / bovine ZP4 (Lys-25 to Arg-464) with N-terminal FLAG-tag … (parent)
chain 1: RFRPSKPPAVMVECQEAQLVVTVDKDLFGTGKLIRPADLTLGPDNCEPLASADTDGVVRFAVGLHECGNILQVTDNALVYSTFLLHNPRPAGNLSILRTNRAEVPIECHYPRQGNVSSWAIQPTWVPFRTTVFSEEKLVFSLRLMEE
chain 2: KVPEYPDELRCGLRSFQFTINPLSQETETPPVLVAWDNHGLPHSLQNDSDCGTWVSEGPGSSLVGEASYSGCYVTEWESYYIMTVGIERAGVSGSGAFIETKLFKCPVNLPDVPNAGLCDSVPVWDRLPCAPSPITQGDCKQLGCCYNSEEVISCYYGNTVTSHCTQDGHFSIAVSRNVTSPPLLLNSVHLAFRNDSECKPVMATHTFVLFRFPFTTCGTTKQITGKQAVYENELVAARDVRTWSRGSITRDSTFRLQVSCSYSASSSALPVNVQVLTLPPPLPETQPGNLTLELKIAKDKRYRSYYTASDYPVVKLLRDPIYVEVSIHQRTDPSLELRLDQCWATPGADALLQPQWPLLVNGCPYTGDNYQTKLIPVWEASDLPFPSHYQRFSISTFSFVDSVAKRALKGPVYLHCSASVCQPAGTPSCVTLCPARRRR

The record followed here is article PMC4693281.

Variants of B1 are the subject of this assay. Put plainly: co-precipitation (TALON resin pull-down of His-tagged ZP3 fragment, anti-FLAG Western blot quantified with NIH ImageJ). As to conditions: with bovine ZP4 (Lys-25 to Arg-464) with N-terminal FLAG-tag and S-tag [bovine]; parent: 100; read off a plot. A general note: Immunoblotting shows a protein as a band on a membrane.
As for chain 1 RFRPSKPPAVMVECQEAQLVVTVDKDLFGTGKLIRPADLTLGPDNCEPLASADTDGVVRFAVGLHECGNILQVTDNALVYSTFLLHNPRPAGDLSILRTNRAEVPIECHYPRQGDVSSWAIQPTWVPFRTTVFSEEKLVFSLRLMEE [chain 1 N93D N115D], the percent of parent was 110%. Take chain 1 RFRPSKPPAVMVECQEAQLVVTVDKDLFGTGKLIRPADLTLGPDNCEPLASADTDGVVRFAVGLHECGNILQVTDNALVYSTFLLHNPRPAGDLSILRTNRAEVPIECHYPRQGNVSSWAIQPTWVPFRTTVFSEEKLVFSLRLMEE [chain 1 N93D]: the percent of parent worked out at 100%. In the case of chain 1 RFRPSKPPAVMVECQEAQLVVTVDKDLFGTGKLIRPADLTLGPDNCEPLASADTDGVVRFAVGLHECGNILQVTDNALVYSTFLLHNPRPAGNLSILRTNRAEVPIECHYPRQGDVSSWAIQPTWVPFRTTVFSEEKLVFSLRLMEE [chain 1 N115D] it was 130%.
